Source: patent publication US9382305B2, “Relaxin fusion polypeptides and uses thereof” (BAYER INTELLECTUAL PROPERTY GMBH, priority 2011, dated 2016)
Where two headings read alike, the source gives them in different places. Ends that are not written are not given here.

Target: T1, human LGR7/RXFP1 receptor (Homo sapiens, UniProt Q9HBX9)
T1 construct: cloned as 2271 base pair long DNA fragment; expressed in transfected cells; host or cells: CHO K1 (ATCC CCL-61) with CRE-luciferase reporter; receptor in pcDNA3.1(-)
T1 sequence (Q9HBX9 1-757): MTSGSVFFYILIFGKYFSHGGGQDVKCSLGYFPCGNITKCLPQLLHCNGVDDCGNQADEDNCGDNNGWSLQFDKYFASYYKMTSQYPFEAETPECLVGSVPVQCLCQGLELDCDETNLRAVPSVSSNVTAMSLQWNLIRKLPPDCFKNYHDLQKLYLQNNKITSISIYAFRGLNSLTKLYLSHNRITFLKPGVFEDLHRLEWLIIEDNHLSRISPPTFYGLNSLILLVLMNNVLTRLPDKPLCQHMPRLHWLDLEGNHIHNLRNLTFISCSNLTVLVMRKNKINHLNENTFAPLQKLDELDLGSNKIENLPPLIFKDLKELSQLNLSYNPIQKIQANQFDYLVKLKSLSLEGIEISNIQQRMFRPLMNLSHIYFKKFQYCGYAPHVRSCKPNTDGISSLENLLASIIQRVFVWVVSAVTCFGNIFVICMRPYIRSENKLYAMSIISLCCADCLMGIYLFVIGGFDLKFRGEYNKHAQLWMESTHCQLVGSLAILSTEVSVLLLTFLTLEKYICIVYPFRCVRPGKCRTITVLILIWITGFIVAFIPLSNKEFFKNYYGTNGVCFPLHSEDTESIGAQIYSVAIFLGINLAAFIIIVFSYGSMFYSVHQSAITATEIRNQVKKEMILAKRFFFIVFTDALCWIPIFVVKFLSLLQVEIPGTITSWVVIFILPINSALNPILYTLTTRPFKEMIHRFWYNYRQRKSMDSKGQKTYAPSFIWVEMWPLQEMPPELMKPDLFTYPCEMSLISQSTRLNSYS
Assay: Activity testing: CRE-luciferase reporter in CHO-CRE-LGR7 cell line
Assay type: cell-based
Conditions: for EC50 (M): luciferase after 6 hours, examples of three to five independent experiments
Method: For stimulation, medium was exchanged by OptiMem (Gibco, #11058)+1% FCS containing different concentrations of the recombinantly expressed Relaxin variant proteins (usually starting at a concentration of 100 nM, followed by 1:2 dilutions). As positive control, commercially available recombinant expressed human Relaxin 2 (Genbank Accession number NP_604390.1) was used (R&D Systems, catalogue number 6586-RN-025). Subsequently, cells were incubated for 6 hours in a humified incubator at 5% carbon dioxide at 37° C. After 6 hours cells were tested for Luciferase activity using a Luciferase Assay System (Promega, # E1500) and using the Tecan Infinite 500 reader, luminescence mode, 1000 milliseconds integration time, measurement time 30 seconds.

[1] = Table 2, scR fusion protein constructs

scR-Var7: single chain human Relaxin 2, linker LysArgSerLeuSerArgLysLysArg; B chain C terminus linked via IleGluGlyArgMetAsp to human IgG1 Fc; SEQ ID NO: 40
EC50 (M) [1]: active (EC50 n.d.)

Relaxin Fc: human Relaxin 2 (B chain-C chain-A chain) fused via IleGluGlyArgMetAsp to N terminal end of human IgG1 Fc
biological activity (activation of LGR7), in words: no activity | EC50 (M) [1]: not detectable | biological activity (activation of LGR7), in words (listed as human wildtype Relaxin 2 molecule with its orientation B chain-C chain-A chain f): does not show any detectable activity

scR14: single chain human Relaxin 3 A-L-B, linker GlyGlyGlySerGlyGlyGlySerGly; non-purified; SEQ ID NO: 14 (DVLAGLSSSCCKWGCSKSEISSLCGGGSGGGSGRAAPYGVRLCGREFIRAVIFTCGGSRW; ends and bridges not checked; cysteine pairing not given here)
biological activity (activation of LGR7), in words: detectable biological activity

scR-Var8: human IgG1 Fc linked via IleGluGlyArgMetAsp to A chain N terminus; A-B linker LysArgSerLeuSerArgLysLysArg; SEQ ID NO: 41
EC50 (M) [1]: active (EC50 n.d.)

B1: scR13: single chain human Relaxin 2 A-L-B, linker LysArgSerLeuSerArgLysLysArg; non-purified; SEQ ID NO: 13 (protein)
chain: QLYSALANKCCHVGCTKRSLARFCKRSLSRKKRSWMEEVIKLCGRELVRAQIAICGMSTWS
modifications: ends and bridges not checked
biological activity (activation of LGR7), in words: lower activity | EC50 (M) (Table 1, scR constructs): active (EC50 n.d.)

B2: scR18: B chain of human Relaxin 2-linker SEQ ID NO: 139-A chain of human Relaxin 3; Myc tag; SEQ ID NO: 154 (protein)
chain: EQKLISEEDLSWMEEVIKLCGRELVRAQIAICGMSTWSGGGSGGGSGDVLAGLSSSCCKWGCSKSEISSLC
modifications: relaxin fusion polypeptide
EC50 (M) (Table 1, scR constructs): not detectable

B3: scR6: single chain human Relaxin 2 A-L-B, fifteen amino acid linker SEQ ID NO: 173; Myc, hemagglutinin, 6 Histidine tags; SEQ ID NO: 6 (protein)
chain: EQKLISEEDLQLYSALANKCCHVGCTKRSLARFCGGGSGGGSGGGSGGGSWMEEVIKLCGRELVRAQIAICGMSTWSYPYDVPDYAHHHHHH
EC50 (M) (Table 1, scR constructs): not detectable

B4: scR-Fc 18: C terminal end of scR4 linked via 21 amino acid linker SEQ ID NO: 174 to human IgG1 Fc; SEQ ID NO: 33 (protein)
chain: QLYSALANKCCHVGCTKRSLARFCGGGSGGGSGSWMEEVIKLCGRELVRAQIAICGMSTWSGGGSGGGSGTLVTVSSESKYGPPCPPCPAPEAAAPELLGGPSVFLFPPKPKDTLMISRTPEVTCVVVDVSHEDPEVKFNWYVDGVEVHNAKTKPREEQYNSTYRVVSVLTVLHQDWLNGKEYKCKVSNKALPAPIEKTISKAKGQPREPQVYTLPPSRDELTKNQVSLTCLVKGFYPSDIAVEWESNGQPENNYKTTPPVLDSDGSFFLYSKLTVDKSRWQQGNVFSCSVMHEALHNHYTQKSLSLSPGK
modifications: relaxin fusion polypeptide
EC50 (M) [1]: active (EC50 n.d.)

B5: scR20: B chain of human Relaxin 3-linker SEQ ID NO: 139-A chain of human Relaxin 2; Myc tag; SEQ ID NO: 156 (protein)
chain: EQKLISEEDLRAAPYGVRLCGREFIRAVIFTCGGSRWGGGSGGGSGQLYSALANKCCHVGCTKRSLARFC
modifications: ends and bridges not checked
EC50 (M) (Table 1, scR constructs): not detectable

B6: scR15: single chain human Relaxin 3 A-L-B, linker GlyGlyGlySerGlyGlyGlySerGly; Myc tag; SEQ ID NO: 15 (protein)
chain: EQKLISEEDLDVLAGLSSSCCKWGCSKSEISSLCGGGSGGGSGRAAPYGVRLCGREFIRAVIFTCGGSRW
modifications: ends and bridges not checked
biological activity (activation of LGR7), in words: detectable biological activity

B7: scR19: A chain of human Relaxin 2-linker SEQ ID NO: 139-B chain of human Relaxin 3; Myc tag; SEQ ID NO: 155 (protein)
chain: EQKLISEEDLQLYSALANKCCHVGCTKRSLARFCGGGSGGGSGRAAPYGVRLCGREFIRAVIFTCGGSRW
modifications: ends and bridges not checked
biological activity (activation of LGR7), in words: further reduction in the activity | EC50 (M) (Table 1, scR constructs): active (EC50 n.d.)

B8: scR16: human Relaxin 2 B chain-linker GlyGlyGlySerGlyGlyGlySerGly-A chain; Myc tag; SEQ ID NO: 152 (protein)
chain: EQKLISEEDLSWMEEVIKLCGRELVRAQIAICGMSTWSGGGSGGGSGQLYSALANKCCHVGCTKRSLARFC
EC50 (M) (Table 1, scR constructs): not detectable

B9: scR2: single chain human Relaxin 2 A-L-B, linker GlyGlyGlySerGly; Myc, hemagglutinin and 6 Histidine tags; SEQ ID NO: 2 (protein)
chain: EQKLISEEDLQLYSALANKCCHVGCTKRSLARFCGGGSGSWMEEVIKLCGRELVRAQIAICGMSTWSYPYDVPDYAHHHHHH
EC50 (M) (Table 1, scR constructs): not detectable

B10: scR1: single chain human Relaxin 2 A-L-B, linker GlyGlyGly; Myc, hemagglutinin and 6 Histidine tags; SEQ ID NO: 1 (protein)
chain: EQKLISEEDLQLYSALANKCCHVGCTKRSLARFCGGGSWMEEVIKLCGRELVRAQIAICGMSTWSYPYDVPDYAHHHHHH
EC50 (M) (Table 1, scR constructs): not detectable

B11: scR17: A chain of human Relaxin 3-linker SEQ ID NO: 139-B chain of human Relaxin 2; Myc tag; SEQ ID NO: 153 (protein)
chain: EQKLISEEDLDVLAGLSSSCCKWGCSKSEISSLCGGGSGGGSGSWMEEVIKLCGRELVRAQIAICGMSTWS
modifications: relaxin fusion polypeptide
biological activity (activation of LGR7), in words: reduced activity
